Data from article PMC10719177.

Key:
[1] = confocal colocalisation with LAMP-1/CD63 (Pearson), cell lines; details: control: untreated cells
[2] = western blot of cell media; details: glycan lost; control: untreated cells
[3] = confocal colocalisation (Pearson), primary and super-charged NK cells; details: glycan changed form; control: untreated cells

B1: cystatin F: kifunensine (10 µM, 6 h); U-937, TALL-104, NK-92 (protein)
parent chain: MRAAGTLLAFCCLVLSTTGGPSPDTCSQDLNSRVKPGFPKTIKTNDPGVLQAARYSVEKFNNCTNDMFLFKESRITRALVQIVKGLKYMLEVEIGRTTCKKNQHLRLDDCDFQTNHTLKQTLSCYSEVWVVPWLQHFEVPVLRCH
Q: With B1 as the protein, how does the localisation_or_trafficking ([1]; glycan changed form) read?
A: increases

B2: cystatin F: tunicamycin (protein)
parent chain: B1 parent chain
Q: For B2, which expression_or_secretion [2] is on record?
A: changes

B3: cystatin F: tunicamycin (1 µg/mL); U-937, NK-92 (protein)
parent chain: B1 parent chain
Q: With B3 as the protein, how does the localisation_or_trafficking ([1]; glycan lost) read?
A: decreases

B4: cystatin F: kifunensine (10 µM, 6 h); pNK, sNK (protein)
parent chain: B1 parent chain
Q: For B4, which localisation_or_trafficking [3] is on record?
A: increases
